Test results published in PMC5131608.

Biological target: Tt1219^33-236 (T. thermophilus HB8)
Assay: SEC; size exclusion chromatography of Tt1219^33-236 alone (Supplementary Fig. 1)

stoichiometry N: 2
Substance: Tt1219^33-236 (domain or fragment)
